The target in one assay is T1, human interleukin 6 (human, UniProt P05231 30-212, limits assumed).
T1 construct: also called hIL6; IL-6
Put plainly: Biacore T100, antibody captured by Protein A/G, pH 7.4, 37 C. As to the method:
Using Biacore T100 (GE Healthcare), the prepared antibodies were assessed for their binding activity (dissociation constant KD (M)) to human interleukin 6 (hIL6) at pH 7.4. The measurement was carried out using as a running buffer 0.05% Tween20, 10 mmol/1 ACES, 150 mmol/l NaCl (pH 7.4) containing 3 μM or 1.2 mM CaCl₂.
After an adequate amount of recombinant Protein A/G (Thermo Scientific) was immobilized onto Sensor chip CM5 (GE Healthcare) by an amino coupling method, antibodies were allowed to bind thereto. An appropriate concentration of hIL6 (human interleukin 6; Kamakura Techno-Science, Inc.) was injected as an analyte to interact with antibodies on the sensor chip. Then, the sensor chip was regenerated by injecting 10 mmol/1 glycine-HCl (pH 1.5). The measurement was carried out at 37° C.

In assay [1] the target is T2, recombinant human glypican 3 (human, UniProt P51654 25-563, biotin-labeled in the ELISA).
T2 construct: Six histidine residues are linked; also called GPC3; human GPC3
Put plainly: ELISA on biotin-labeled GPC3. The procedure:
The plate was incubated at 37° C. for 30 minutes. […] The plate was incubated for one hour.

Assay [2] has as its target T3, recombinant human IgA (human).
T3 construct: Antigen; H(WT)-IgA1 with L(WT); The text calls human IgA a dimeric antigen; also called hIgA
Put plainly: Biacore T200, pH 8.0, 0.1 µM Ca, 1:1 binding model. As to the method: (§1) Using Biacore T200 (GE Healthcare), the obtained antibodies were assessed for their binding activity to human IgA (dissociation constant KD (M)). The measurement was carried out using as a running buffer 0.05% tween20, 20 mmol/1 ACES, 150 mmol/l NaCl (pH 7.4 or pH 5.8) containing 3 μM or 1.2 mM CaCl₂, or 0.05% tween20, 20 mmol/1 ACES, 150 mmol/l NaCl (pH 8.0) containing 0.1 μM or 10 mM CaCl₂.
(§2) After an adequate amount of recombinant Protein A/G (Thermo Scientific) was immobilized onto the Sensor chip CM5 (GE Healthcare) by an amino coupling method, antibodies were allowed to bind onto the sensor chip. An appropriate concentration of hIgA (described in (20-1)) was injected as an analyte to interact with antibodies on the sensor chip. Then, the sensor chip was regenerated by injecting 10 mmol/l glycine-HCl, pH 1.5. The measurement was carried out at 37° C. From the assay result, the dissociation constant KD (M) was calculated based on curve-fitting analysis and equilibrium constant analysis using Biacore T200 Evaluation Software (GE Healthcare).

Assay [3] addresses T3, recombinant human IgA. Put plainly: Biacore T200, pH 7.4, 1.2 mM Ca, 1:1 binding model. The procedure:
as §1, §2

The target in assay [4] is T3, recombinant human IgA. Put plainly: Biacore T200, pH 5.8, 1.2 mM Ca, 1:1 binding model. As to the method:
as §1, §2

Assay [5] deals with T3, recombinant human IgA. Put plainly: Biacore T200, pH 8.0, 10 mM Ca, 1:1 binding model. The procedure:
as §1, §2

The target of assay [6] is T3, recombinant human IgA. Put plainly: Biacore T200, pH 7.4, 3 µM Ca, 1:1 binding model. As to the method:
as §1, §2

Assay [7] deals with T3, recombinant human IgA. Put plainly: Biacore T200, pH 5.8, 3 µM Ca, 1:1 binding model. The procedure: as §1, §2
Assay [8] deals with T3, recombinant human IgA. Put plainly: Biacore T200, pH 7.4, 3 µM Ca, steady state affinity. As to the method:
as §1, §2

Assay [9] addresses T3, recombinant human IgA. Put plainly: Biacore T200, pH 5.8, 3 µM Ca, steady state affinity. As to the method: as §1, §2
Assay [10] addresses T3, recombinant human IgA. Put plainly: Biacore T200, pH 5.8, 1.2 mM Ca, steady state affinity. The procedure:
as §1, §2

In assay [11] the target is T3, recombinant human IgA. Put plainly: Biacore T200, pH 7.4, 1.2 mM Ca, steady state affinity. As to the method:
as §1, §2

Assay [12] has as its target T4, soluble human IL-6 receptor (human, UniProt P08887 20-357).
T4 construct: also called hsIL-6R; hIL6R
T4 sequence: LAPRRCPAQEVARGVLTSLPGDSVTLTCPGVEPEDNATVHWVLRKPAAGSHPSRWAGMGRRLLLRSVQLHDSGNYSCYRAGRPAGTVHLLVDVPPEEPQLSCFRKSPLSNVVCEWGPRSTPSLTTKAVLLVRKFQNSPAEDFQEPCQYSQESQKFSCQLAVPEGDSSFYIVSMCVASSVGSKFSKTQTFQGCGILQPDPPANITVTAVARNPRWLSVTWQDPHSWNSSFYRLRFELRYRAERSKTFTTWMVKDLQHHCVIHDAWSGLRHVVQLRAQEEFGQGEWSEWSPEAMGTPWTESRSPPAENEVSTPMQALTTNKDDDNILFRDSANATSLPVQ
Put plainly: Biacore T100, antibody captured by Protein A, 37 C.

In assay [13] the target is T4, soluble human IL-6 receptor. Put plainly: Biacore T100.

T3 sequence (heavy, as listed by the source): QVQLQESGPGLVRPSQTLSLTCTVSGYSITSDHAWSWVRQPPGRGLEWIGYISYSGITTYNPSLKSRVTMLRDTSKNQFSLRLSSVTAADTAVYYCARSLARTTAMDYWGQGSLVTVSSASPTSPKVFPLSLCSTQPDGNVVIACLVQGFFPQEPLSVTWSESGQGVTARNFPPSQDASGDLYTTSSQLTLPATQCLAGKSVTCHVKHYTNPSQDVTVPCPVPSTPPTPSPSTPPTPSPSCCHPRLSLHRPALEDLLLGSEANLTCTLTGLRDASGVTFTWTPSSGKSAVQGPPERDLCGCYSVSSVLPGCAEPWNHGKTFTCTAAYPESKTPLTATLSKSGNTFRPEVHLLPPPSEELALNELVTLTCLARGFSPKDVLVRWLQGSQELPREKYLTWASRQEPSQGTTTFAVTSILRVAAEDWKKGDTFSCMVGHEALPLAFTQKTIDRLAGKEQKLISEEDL
T1 sequence (P05231 30-212 limits assumed): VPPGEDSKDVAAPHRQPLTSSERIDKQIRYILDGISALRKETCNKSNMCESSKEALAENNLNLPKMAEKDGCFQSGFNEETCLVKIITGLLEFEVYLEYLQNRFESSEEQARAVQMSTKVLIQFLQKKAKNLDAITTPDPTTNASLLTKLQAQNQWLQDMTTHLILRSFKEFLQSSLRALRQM

B1: 6LC4-2#16-IgG1 (antibody, V domains shown)
VH: QVQLQQSGPGLVKPSQTLSLTCAISGDSVSSNSAAWNWIRQSPSRGLEWLGRTYYRSKWYNDYAVSVKSRITINPDTSKNQFSLQLNSVTPEDTAVYYCARDLIAAAGGDFDYWGQGTLVTVSS
VL: QSVLTQPPSVSGAPGQRVTISCTGSRSNIGAGFDVHWYRQLPGTAPKLLIYGISNRPSGVPDRFSGSKSDTSVSLAITGLQAEDEADYYCQSYDSSLSGYVFGTGTKVTVLG
For the molecule B1, the binding result with human interleukin 6 is “binds”.

B2: GC-IgG1 (antibody, V domains shown)
VH: QVQLVQSGAEVKKPGASVKVSCKASGYTFTDYEMHWVRQAPGQGLEWMGALDPKTGDTAYSQKFKGRVTLTADKSTSTAYMELSSLTSEDTAVYYCTRFYSYTYWGQGTLVTVSS
VL: DVVMTQSPLSLPVTPGEPASISCRSSQSLVHSNRNTYLHWYLQKPGQSPQLLIYKVSNRFSGVPDRFSGSGSGTDFTLKISRVEAEDVGVYYCSQNTHVPPTFGQGTKLEIKR
In the case of B2, in [1], the binding result is on record as “binds”.

B3: GA1-IgG1 (antibody, V domains shown)
VH: EVQLVQSGAEVKKPGSSVKVSCKASGGTFSSYAISWVRQAPGQGLEWMGGIIPIFGTANYAQKFQGRVTITADESTSTAYMELSSLRSEDTAVYYCARVAPGNWGSPYFDYWGQGTLVTVSS
VL: DIQMTQSPSSLSASVGDRVTITCRASQSIEDDLAWYQQKPGKAPKLLIYEASSLQSGVPSRFSGSGSGTDFTLTISSLQPEDFATYYCQQRDSSPLTFGQGTKVEIKR
notes: also called GAI-IgG1
Consider B3, for which the Kd stood at 100 nM with recombinant human IgA [2]; 150 nM in the assay with recombinant human IgA [3]; 140 nM with recombinant human IgA [4]; 220 nM in the assay with recombinant human IgA [5]; 190 nM with recombinant human IgA [6]; 150 nM in the assay with recombinant human IgA [7]. Moreover, the koff came out at 0.12 s⁻¹ in the assay with recombinant human IgA [2]; 0.084 s⁻¹ with recombinant human IgA [3]; 0.099 s⁻¹ with recombinant human IgA [4]; 0.24 s⁻¹ with recombinant human IgA [5]; 0.12 s⁻¹ with recombinant human IgA [6]; 0.11 s⁻¹ in the assay with recombinant human IgA [7]. Also, the kon in the assay with recombinant human IgA [2] amounted to 1.2e+06 M⁻¹ s⁻¹; with recombinant human IgA [3], 570000 M⁻¹ s⁻¹; in the assay with recombinant human IgA [4] it was 680000 M⁻¹ s⁻¹; with recombinant human IgA [5], 1.1e+06 M⁻¹ s⁻¹; with recombinant human IgA [6], 640000 M⁻¹ s⁻¹; with recombinant human IgA [7] it was 710000 M⁻¹ s⁻¹.

B4: GA2-IgG1 (antibody, V domains shown)
VH: QVQLVQSGAEVKKPGSSVKVSCKASGGTFSSYAISWVRQAPGQGLEWMGGIIPIFGTANYAQKFQGRVTITADESTSTAYMELSSLRSEDTAVYYCARPRWETAISSDAFDIWGQGTMVTVSS
VL: DIQMTQSPSSLSASVGDRVTITCRASQSISDDLNWYQQKPGKAPKLLIYEASNLQSGVPSRFSGSGSGTDFTLTISSLQPEDFATYYCQQHSSSPLTFGQGTKVEIKR
As to B4, the koff with recombinant human IgA [3] amounted to 0.016 s⁻¹.

B5: GA4-IgG1 (antibody, V domains shown)
VH: QVQLQQSGPGLVKPSETLSLTCTILGGSISGHYWSWIRQTPGKGLEWIGYIDYSGSTHYNPSLKSRVTMSVDTSKNQFSLKLSSVTAADTAMYYCARDNWDFGSGSYYNWFDPWGQGTLVTVSS
VL: DIQMTQSPSSLSASVGDRVTITCRASQSIEDDLAWYQQKPGKAPKLLIYHASSLQSGVPSRFSGSGSGTDFTLTISSLQPEDFATYYCQQSDNSPLTFGQGTKVEIKR
As for B5, the Kd with recombinant human IgA [8] was found to be 890 nM; with recombinant human IgA [9], 1500 nM; with recombinant human IgA [10], 1100 nM; in the assay with recombinant human IgA [11] it was 420 nM.

B6: GA3-IgG1 (antibody, V domains shown)
VH: QVQLVQSGAEVKKPGSSVKVSCKASGGTFSSYAISWVRQAPGQGLEWMGGIIPIFGTANYAQKFQGRVTITADESTSTAYMELSSLRSEDTAVYYCARGNGDYLEYFQHWGQGTLVTVSS
VL: DIQMTQSPSSLSASVGDRVTITCRASQSISDDLAWYQQKPGKAPKLLIYEASNLQSGVPSRFSGSGSGTDFTLTISSLQPEDFATYYCQQRDSSPLTFGQGTKVEIKR
Take B6: the Kd in the assay with recombinant human IgA [9] was 1100 nM. Besides, in the assay with recombinant human IgA [3], the Kd is 79 nM, the koff came out at 0.033 s⁻¹ and the kon is 430000 M⁻¹ s⁻¹. Also, in the assay with recombinant human IgA [4], the Kd is 81 nM, the koff was 0.035 s⁻¹ and the kon came to 440000 M⁻¹ s⁻¹.

B7: 6KC4-1#85-IgG1 (antibody, V domains shown)
VH: EVQLVESGGGLVQPGGSLRLSCAASGFTFSSYEMNWVRQAPGKGLEWVSYISSSGSTIYYADSVKGRFTISRDNAKNSLYLQMNSLRAEDTAVYYCARDAPYYYDSSGYTDAFDIWGQGTMVTVSS
VL: EIVLTQSPATLSLSPGERATLSCRASQSVSSYLAWYQQKPGQAPRLLIFDASNRAAGIPARFSGSGSGTDFTLTISSLEPEDFAVYYCQQFDKWVTFGGGTTVEIRR
With B7, in the assay with human interleukin 6, the binding result is reported as “binds”.

B8: 6RK#12-IgG1 (antibody, V domains shown)
VH: QVQLVQSGAEVKKPGSSVKVSCKASGGTFSSYAISWVRQAPGQGLEWMGGIIPIFGTANYAQKFQGRVTITADESTSTAYMELSSLRSEDTAVYYCARDLGDIVVVPAAPDMPKGYYYYGMDVWGQGTMVTVSS
VL: EIVMTQSPATLSVSPGERATLSCRASQSINDNLAWYQQKPGQAPRLLIYGASTRATGIPARFSGSGSGTEFTLTISSLQSEDFAVYFCQQYQYWPPITFGQGTRLDIKR
As for B8, the binding result in assay [12] is listed as “binds”.

B9: FH4-IgG1 (antibody, V domains shown)
VH: QVQLVQSGAEVKKPGSSVKVSCKASGGTFSSYAISWVRQAPGQGLEWMGGIIPIFGTANYAQKFQGRVTITADESTSTAYMELSSLRSEDTAVYYCARERDYYDSSGYYDAFDIWGQGTMVTVSS
VL: ETTVTQSPSFLSASVGDRVTITCITTTDIDDDMNWFQQEPGKAPKLLISEGNILRPGVPSRFSSSGYGTDFTLTISKLQPEDFATYYCLQSDNLPFTFGQGTKLEIKR
As for B9, the “Ca … (KD at 3 µM CaCl2 against KD at 2 mM CaCl2)” value in assay [13] was ≥ 60 fold.

B10: 6RL#9-IgG1 (antibody, V domains shown)
VH: QVQLVQSGAEVKKPGASVKVSCKASGYTFTSYYMHWVRQAPGQGLEWMGIINPSGGSTSYAQKFQGRVTMTRDTSTSTVYMELSSLRSEDTAVYYCARDDPGGGEYYFDYWGQGTLVTVSS
VL: QSVLTQPPSVSGAPGQRVTISCTGSRSNMGAGYDVHWYQLLPGAAPKLLISHNTHRPSGVPDRFSGSKSGASASLAITGLQAEDEADYYCQSHDSSLSAVVFGGGTKLTVLS
In the case of B10, in assay [13], the “Ca … (KD at 3 µM CaCl2 against KD at 2 mM CaCl2)” value was ≥ 120 fold.

B11: 6LC4-1#15-IgG1 (antibody, V domains shown)
VH: QVQLVQSGAEVKKPGATVKISCKVSGYTFTDYYMHWVQQAPGKGLEWMGLVDPEDGETIYAEKFQGRVTITADTSTDTAYMELSSLRSEDTAVYYCATAGSSSNFDYWGQGTLVTVSS
VL: QSALTQPRSVSGSPGQSVTISCTGTSSDVGGYNYVSWYQQHPGKAPKLMIYDVSKRPSGVPDRFSGSKSGNTASLTISGLQAEDEADYYCCSYAGSYTWVFGGGTKLTVLG
B11: the binding result in the assay with human interleukin 6 was “binds”.

Source of the values: patent US20180258161A1 (Chugai, published 2018).
